Experimental data: article doi:10.1101/2024.03.27.587050

Key:
[1] = target: Chaetomium thermophilum NAT10 (CtNAT10), E.coli produced recombinant (Chaetomium thermophilum); assay: mass photometry
[2] = target: Chaetomium thermophilum NAT10 (CtNAT10), Sf9 produced recombinant (Chaetomium thermophilum); assay: mass photometry

| Substance | stoichiometry N [1] | stoichiometry N [2] |
| --- | --- | --- |
| Chaetomium thermophilum NAT10 (CtNAT10), E.coli produced recombinant (enzyme) | 2 |  |
| Chaetomium thermophilum NAT10 (CtNAT10), Sf9 produced recombinant (enzyme) |  | 2 |
